Assay results: the Human Domainome abundance scans (Beltran et al. 2025)

B1: Membrane-associated guanylate kinase, WW and PDZ domain-containing protein 2, residues 296 to 340; numbered along this chain, Q86UL8 (parent)
chain: EDNEEPDPLPDNWEMAYTEKGEVYFIDHNTKTTSWLDPRLAKKAK

Variants of: B1
Experiment: abundance fitness (aPCA) (normalised: wild type 0, dead -1); higher = more abundant; growth selection in yeast, the domain comes from the species named
Conditions: Homo sapiens

Abundance fitness: each site, then its substitutions
L36: I 0.086, F -0.184, R -0.051, H -0.298, V 0.025, P -0.776, S -0.125, D -0.227, C 0.153, M -0.053, G -0.198
D37: G -0.51, W -0.671, L -0.699, E -0.569, N -0.184, K -0.246, P -0.456, Q -0.607, F -0.846, A -0.431, I -0.832, H -0.623, Y -0.697
M15: R -0.106, G -0.459, L -0.026, C -0.127
D2: L 0.072, C 0.256, N 0.072, E -0.131, K 0.116, W -0.029, R 0.05, A 0.125
A41: G 0.138, L -0.297
D11: H -0.029, G -0.096, Q 0.091, N -0.011, M -0.015, L 0.073, S 0.421, E 0.033, K -0.04, A 0.007, V -0.064
N3: M 0.083, F -0.029, G -0.081, P -0.109, D -0.258, W 0.059, A -0.099, C -0.031, Y 0.037, H 0.058, E -0.173, S 0.021, Q 0.055
T18: F -0.953, C -0.454, N -0.382, P -1.08, K -0.476
D27: G -0.937, P -1.09, E -0.487, L -1.3, R -0.667, M -1.03, Y -0.217, N -0.151, V -1.39
K42: N 0.032, C 0.097, R 0.021, A 0.085, M 0.011, Y -0.033, W 0.089, V 0.079, P 0.128, T -0.148, E 0.035
K31: G -0.074, V -0.473, D -0.38, C -0.024, Y -0.235, Q 0.013, E -0.08, R 0.005, M -0.008, P -0.675, L -0.155, I -0.498
Y24: R -0.86, Q -0.809, D -0.618, N -1.08, P -1.07, L -0.557, S -0.703, G -0.816, C -0.546, W -0.568
G21: W -0.593, S -0.208, M -0.152, R -0.174, Q -0.047, C -0.26
A16: I -0.529, R -0.127, G -0.109, D -0.398, K -0.119, L -0.337, F -0.709, S 0.002, T -0.335
L40: K 0.091, E 0.034, S -0.022, T 0.012, N 0.117, G 0.076, W -0.133, R -0.002, V 0.043
T33: W -0.763, L -0.635, M -0.488, I -0.507, Q -0.637, K -0.492, P -0.841, E -0.655, A -0.438, V -0.272
E19: G -0.107, S -0.021, V -0.079, K -0.031, P -0.013, L -0.091, Q 0.02, W -0.319
A44: R -0.076, V -0.009
E1: R 0.128, H -0.109, M -0.067, S -0.154, G 0.009, K 0.058, V 0.035
P6: I -0.088, S 0.003, E -0.138, W 0.043, N -0.025, L 0.014, G -0.004
